According to patent publication US20170342155A1 (Amgen, published 2017):

How the values were obtained:
Experiment in all cases: flow cytometry on transfected 293T cells, PE secondary antibody, geo mean
[1] = molecular target: T1, human CCR7 variant F128L (20100126472) (human, UniProt P32248 25-378)
T1 sequence: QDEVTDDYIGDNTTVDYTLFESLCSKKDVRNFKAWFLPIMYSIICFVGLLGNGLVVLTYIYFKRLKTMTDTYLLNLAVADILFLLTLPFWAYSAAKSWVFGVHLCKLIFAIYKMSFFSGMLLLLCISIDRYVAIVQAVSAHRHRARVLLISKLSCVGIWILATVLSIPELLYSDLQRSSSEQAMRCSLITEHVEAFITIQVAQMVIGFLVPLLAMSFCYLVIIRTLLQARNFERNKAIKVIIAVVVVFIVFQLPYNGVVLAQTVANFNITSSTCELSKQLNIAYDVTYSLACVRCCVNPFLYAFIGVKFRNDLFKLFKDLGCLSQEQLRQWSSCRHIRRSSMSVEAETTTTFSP

[2] = molecular target: T2, human CCR7 variant M208L (20100171271) (human, UniProt P32248 25-378)
T2 sequence: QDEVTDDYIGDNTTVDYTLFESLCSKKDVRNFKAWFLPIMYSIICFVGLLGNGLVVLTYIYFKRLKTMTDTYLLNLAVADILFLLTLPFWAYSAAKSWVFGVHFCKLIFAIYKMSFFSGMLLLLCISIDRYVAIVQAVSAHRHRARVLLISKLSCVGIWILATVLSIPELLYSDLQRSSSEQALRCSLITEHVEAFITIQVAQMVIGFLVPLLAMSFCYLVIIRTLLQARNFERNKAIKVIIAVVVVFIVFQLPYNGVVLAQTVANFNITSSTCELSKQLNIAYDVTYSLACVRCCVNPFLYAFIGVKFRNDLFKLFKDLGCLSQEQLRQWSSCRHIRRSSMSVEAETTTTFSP

[3] = molecular target: T3, human CCR7 variant F44Y (20100128285) (human, UniProt P32248 25-378)
T3 sequence: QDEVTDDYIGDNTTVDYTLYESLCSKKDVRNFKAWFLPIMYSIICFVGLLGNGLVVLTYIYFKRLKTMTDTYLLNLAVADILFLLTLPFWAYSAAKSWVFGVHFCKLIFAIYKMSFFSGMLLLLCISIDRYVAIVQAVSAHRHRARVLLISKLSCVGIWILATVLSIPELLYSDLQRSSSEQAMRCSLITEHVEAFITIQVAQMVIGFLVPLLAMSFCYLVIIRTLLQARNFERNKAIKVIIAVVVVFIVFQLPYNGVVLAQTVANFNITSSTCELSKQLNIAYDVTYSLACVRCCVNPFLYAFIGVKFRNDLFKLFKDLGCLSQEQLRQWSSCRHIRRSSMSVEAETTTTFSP

[4] = molecular target: T4, human CCR7 variant L47V (20100122626) (human, UniProt P32248 25-378)
T4 sequence: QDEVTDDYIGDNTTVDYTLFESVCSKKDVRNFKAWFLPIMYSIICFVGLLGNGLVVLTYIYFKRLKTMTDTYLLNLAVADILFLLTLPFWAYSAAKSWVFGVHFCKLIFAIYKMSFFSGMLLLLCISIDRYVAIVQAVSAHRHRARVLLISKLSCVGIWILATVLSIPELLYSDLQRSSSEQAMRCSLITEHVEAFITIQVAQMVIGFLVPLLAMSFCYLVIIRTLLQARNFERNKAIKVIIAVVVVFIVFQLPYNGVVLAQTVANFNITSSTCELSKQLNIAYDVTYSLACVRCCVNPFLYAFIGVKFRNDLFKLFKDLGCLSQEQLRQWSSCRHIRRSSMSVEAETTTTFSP

[5] = molecular target: T5, human CCR7 variant S49F (20100122627) (human, UniProt P32248 25-378)
T5 sequence: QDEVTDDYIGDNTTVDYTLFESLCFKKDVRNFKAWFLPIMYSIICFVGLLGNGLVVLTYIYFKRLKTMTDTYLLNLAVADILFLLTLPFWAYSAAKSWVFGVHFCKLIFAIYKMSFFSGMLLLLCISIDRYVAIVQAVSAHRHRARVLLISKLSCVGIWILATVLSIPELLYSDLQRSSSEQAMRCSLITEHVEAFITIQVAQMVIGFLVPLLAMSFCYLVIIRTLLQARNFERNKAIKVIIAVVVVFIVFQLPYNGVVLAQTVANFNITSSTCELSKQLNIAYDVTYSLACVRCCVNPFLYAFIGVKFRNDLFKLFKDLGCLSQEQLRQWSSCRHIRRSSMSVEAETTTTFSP

[6] = molecular target: T6, human CCR7 variant V123I (20100126473) (human, UniProt P32248 25-378)
T6 sequence: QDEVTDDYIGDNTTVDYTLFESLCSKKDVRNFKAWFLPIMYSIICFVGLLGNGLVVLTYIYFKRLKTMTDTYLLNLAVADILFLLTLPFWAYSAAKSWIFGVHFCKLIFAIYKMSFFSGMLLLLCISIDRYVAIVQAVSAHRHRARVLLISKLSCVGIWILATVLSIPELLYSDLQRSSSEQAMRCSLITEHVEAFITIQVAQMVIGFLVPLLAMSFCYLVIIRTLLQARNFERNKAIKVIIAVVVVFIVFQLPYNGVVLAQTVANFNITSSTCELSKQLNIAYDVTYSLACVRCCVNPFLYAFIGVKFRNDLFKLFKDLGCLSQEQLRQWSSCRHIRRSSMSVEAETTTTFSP

[7] = molecular target: T7, murine CCR7 Y44F/V47L/K201R/N202S/G204S/T207A/L208M construct 20110105423 (mouse, UniProt P47774 25-378)
T7 construct: Murine CCR7 with seven human residues; also called YVKNGTL; construct YVKNGTL
T7 chain: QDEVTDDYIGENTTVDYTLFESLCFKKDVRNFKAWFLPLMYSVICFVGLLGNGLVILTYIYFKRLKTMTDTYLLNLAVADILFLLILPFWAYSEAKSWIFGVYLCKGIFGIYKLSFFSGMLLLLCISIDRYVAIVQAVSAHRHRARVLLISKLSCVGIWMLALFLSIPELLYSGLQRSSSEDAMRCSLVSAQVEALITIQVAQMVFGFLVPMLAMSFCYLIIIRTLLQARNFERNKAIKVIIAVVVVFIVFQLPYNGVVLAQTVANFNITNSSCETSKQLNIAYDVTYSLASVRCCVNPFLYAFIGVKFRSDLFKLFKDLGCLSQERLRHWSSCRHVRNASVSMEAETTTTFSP

Measured: binding result

B1: antibody 6B4.1 (antibody, V domains shown)
VH: QVQLVESGGGVVQPGRSLRLSCAASGFTFSSYGMHWVRQAPGKGLEWVAVIWYDGSKKYYADSVKGRFTISRDNSKNTLYLQMNRLRAEDTAVYYCARDGGIAVFLQDNWFDPWGQGTLVTVSS
VL: SYELTQPPSVSVSPGQRARITCSGDKLGDKYASWYQQKPGQSPLLVIYQDSKRPSGIPERFSGSNSGNTATLTISGTQAMDEADYYCQAWGSSTVIFGGGTKLTVLG
notes: Human antibody from XenoMouse hybridoma; Light = 2 and heavy = 42 is inferred from the order of the listing (light chains first)
binds: [1] | [2] | [3] | [4] | [5] | [6] | [7]

B2: antibody 6B5.1 (antibody, human IgG2, lambda, V domains shown)
VH: QVQLVESGGGVVQPGRSLRLSCAASGFTFRSYGMHWVRQAPGKGLEWVAVIWYDGSKKYYADSVKGRFTISRDNSKNTLYLQMNRLRAEDTAVYYCARDGGIAVFLEDNWFDPWGQGTLVTVSS
VL: SYELTQPPSVSVSPGQRASITCSGDKLGDKYASWYQQKPGQSPLLVIYQDGKRPSGIPERFSGSNSGNTATLTISGTQAMDEADYYCQAWGSSTVIFGGGTKLTVLG
notes: Human antibody from XenoMouse hybridoma; Light = 18 and heavy = 50 is inferred from the order of the listing
binds: [1] | [2] | [3] | [4] | [5] | [6] | [7]
